The text below walks through data of patent US20260224723A1, “ANTI-B7H3 ANTIBODY-DRUG CONJUGATE AND USE THEREOF” (Duality Biologics (Suzhou) Co., Ltd., priority 2022, published 2026).

Experiment [1] has as its system cynomolgus monkey B7H3. The experiment is described as follows: FACS binding to cynomolgus monkey B7H3-transfected stable cell pool. As for the experimental part: A cell pool expressing cynomolgus monkey B7H3 was generated. Briefly, FlipinCHO cells were transfected with a pcDNA5/pOG44 expression vector containing full-length cynomolgus monkey B7H3 using Lipofectamine 2000 transfection kit (Invitrogen, 11668027) according to the manufacturer's protocol. At 48 h post-transfection, the cells were subcultured into a selective medium (F12 containing 10% FBS and 600 μg/mL hygromycin B) in a T75 flask. After two or three passages of selection, a cell pool stably and highly expressing cynomolgus monkey B7H3 (WBP3XX088-FlpinCHO.cProl.pool) was obtained by hygromycin B selection and BD FACSMelody™ cell sorting.
FACS was used to detect the binding of antibodies to cynomolgus monkey B7H3. FlpinCHO cells were transfected with cynomolgus monkey B7H3 (W3XX088-FlpinCHO.cProl.pool) (1×10^5 cells/well), and the transfected cells were incubated with various concentrations of antibodies (3.16-fold serially diluted with 1×DPBS/1% BSA from 50 nM to 0.0005 nM) in a volume of 100 μL/well in a refrigerator set to 4° C. for 1 h. Anti-human B7H3 reference antibody enoblituzumab (MacroGeneics) was used as a positive control. […] The mean fluorescence intensity (MFI) of the cells was measured by a flow cytometry and analyzed by FlowJo. EC50 values were calculated by four-parameter non-linear regression analysis using GraphPad Prism 7 software.
For orientation: In flow cytometry, cells or beads pass a laser one at a time.

In the next experiment the target is T1, human B7H3 (Homo sapiens, UniProt Q5ZPR3).
T1 construct: MCF-7 cells expressing human full-length B7H3; host or cells: MCF-7
T1 sequence (Q5ZPR3 29-534): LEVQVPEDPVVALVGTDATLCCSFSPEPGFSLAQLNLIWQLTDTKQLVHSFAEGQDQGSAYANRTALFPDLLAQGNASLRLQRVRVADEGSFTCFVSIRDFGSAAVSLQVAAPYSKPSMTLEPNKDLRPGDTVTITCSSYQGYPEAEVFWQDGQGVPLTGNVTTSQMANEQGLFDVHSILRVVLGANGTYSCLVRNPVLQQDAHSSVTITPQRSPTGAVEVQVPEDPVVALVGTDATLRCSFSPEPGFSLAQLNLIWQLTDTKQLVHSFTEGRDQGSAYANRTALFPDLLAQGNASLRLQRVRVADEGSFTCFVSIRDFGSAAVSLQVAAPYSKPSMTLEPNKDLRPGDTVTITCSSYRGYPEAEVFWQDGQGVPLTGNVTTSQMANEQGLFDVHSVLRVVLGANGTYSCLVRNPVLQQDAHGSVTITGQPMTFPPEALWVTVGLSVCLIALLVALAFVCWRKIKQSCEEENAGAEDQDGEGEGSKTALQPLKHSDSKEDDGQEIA
The experiment is described as follows: FACS binding to human B7H3-expressing cells MCF-7. As to the method: FACS was used to detect the binding of antibodies to human B7H3. This method allows quantitative analysis and identification of specific molecules expressed on the surface of living cells. Unlabeled cells were used as a control to set a threshold before the assay, and the percentage change for each group that exceeded the fluorescence intensity threshold was analyzed. MCF-7 cells expressing human full-length B7H3 (1×10^5 cells/well) were incubated with various concentrations of antibodies (3.16-fold serially diluted with 1×DPBS/1% BSA from 50 nM to 0.0005 nM) in a volume of 100 μL/well in a refrigerator set to 4° C. for 1 h. Anti-human B7H3 reference antibody enoblituzumab (MacroGeneics) was used as a positive control. Human IgG1 isotype antibody was used as a negative control. After washing the cells with 1×DPBS/1% BSA, Alexa 647 goat anti-human antibody (diluted in a 1:500 ratio in 1×DPBS/1% BSA) was added. The cells were incubated in a refrigerator set to 4° C. for 0.5 h in the dark. The mean fluorescence intensity (MFI) of the cells was measured by a flow cytometry and analyzed by FlowJo. EC50 values were calculated by four-parameter non-linear regression analysis using GraphPad Prism 7 software.

Experiment [2] concerns cynomolgus monkey B7H3. The experiment is described as follows: SPR binding affinity for cynomolgus monkey B7H3 (Biacore 8K). To be noted: analyte cynomolgus monkey B7H3. As to the method:
The affinity of antibodies for cynomolgus monkey B7H3 was determined using surface plasmon resonance (SPR). The affinity of antibodies for cynomolgus monkey B7H3 was determined by Biacore 8K. An activator was prepared by mixing 400 mM EDC and 100 mM NHS (GE) immediately prior to injection into the channel. The CM5 sensor chip was activated for 420 seconds with the activator. Goat anti-human Fe IgG (30 μg/mL in 10 mM NaAc, pH 4.5) was then injected into the channel at a flow rate of 10 μL/min for 420 seconds. The chip was deactivated by 1 M ethanolamine hydrochloric acid. The antibodies diluted in running buffer (1×HBS-EP+) were injected into the channel at a flow rate of 10 μL/min for 30 seconds. […] Glycine (10 mM, pH 1.5) was injected as regeneration buffer after the dissociation phase.
The sensorgrams for the reference channel and the buffer channel were subtracted from the test sensorgrams. The experimental data for 6 analyte concentrations (50 nM, 25 nM, 12.5 nM, 6.25 nM, 3.125 nM, and 1.563 nM) were fitted with a 1:1 binding model. The molecular weight of the cynomolgus monkey B7H3 used in the calculation was 49 kDa.
(§1) The experimental data were fitted by a 1:1 binding model bundled with the Biacore 8K evaluation software.
For orientation: In SPR one partner is held on a chip, and binding of the other changes the refractive index at the surface.

For a further experiment, the target named is T2, human 4IgB7H3 (Homo sapiens, UniProt Q5ZPR3).
T2 construct: Uniprot ID: Q5ZPR3, amino acids 29-461; 6xHis (C); made in house; host or cells: Expi293F
T2 sequence (Q5ZPR3 29-461): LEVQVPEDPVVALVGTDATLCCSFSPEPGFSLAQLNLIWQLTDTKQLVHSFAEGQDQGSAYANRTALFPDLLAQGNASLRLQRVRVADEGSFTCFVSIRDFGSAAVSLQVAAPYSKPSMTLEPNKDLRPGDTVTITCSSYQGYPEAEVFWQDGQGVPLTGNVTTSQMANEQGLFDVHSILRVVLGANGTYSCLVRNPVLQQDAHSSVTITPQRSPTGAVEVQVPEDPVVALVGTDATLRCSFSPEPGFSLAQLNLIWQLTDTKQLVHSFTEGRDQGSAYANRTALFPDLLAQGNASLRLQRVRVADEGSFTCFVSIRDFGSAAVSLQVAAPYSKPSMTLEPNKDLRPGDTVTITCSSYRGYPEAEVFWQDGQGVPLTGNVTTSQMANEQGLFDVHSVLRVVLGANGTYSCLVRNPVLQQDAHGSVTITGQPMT
The experiment is described as follows: SPR binding affinity for human 4IgB7H3 (Biacore 8K). To be noted: analyte human 4IgB7H3. As to the method: The affinity of antibodies for human 4IgB7H3 was determined using surface plasmon resonance (SPR). The affinity of antibodies for human 4IgB7H3 was determined by Biacore 8K. An activator was prepared by mixing 400 mM EDC and 100 mM NHS (GE) immediately prior to injection into the channel. The CM5 sensor chip was activated for 420 seconds with the activator. Goat anti-human Fc IgG (30 μg/mL in 10 mM NaAc, pH 4.5) was then injected into the channel at a flow rate of 10 μL/min for 420 seconds. The chip was deactivated by 1 M ethanolamine hydrochloric acid. The antibodies diluted in running buffer (1×HBS-EP+) were injected into the channel at a flow rate of 10 μL/min for 30 seconds. Seven concentrations (100 nM, 50 nM, 25 nM, 12.5 nM, 6.25 nM, […], and 1.563 nM) of analyte human 4IgB7H3 were injected sequentially into the channel at a flow rate of 30 μL/min for an association phase of 180 seconds, followed by dissociation of 3600 seconds. Glycine (10 mM, pH 1.5) was injected as regeneration buffer after the dissociation phase.
The sensorgrams for the reference channel and the buffer channel were subtracted from the test sensorgrams. The experimental data were fitted with a 1:1 binding model. The molecular weight of the human 4IgB7H3 used in the calculation was 47.8 kDa.
as §1

Another experiment deals with T3, human 2IgB7H3 (Homo sapiens, UniProt Q5ZPR3).
T3 construct: His tag; purchased ACRO (ACROBiosystems) B73-H52E2
T3 sequence (Q5ZPR3 29-316 isoform Q5ZPR3-2 limits assumed): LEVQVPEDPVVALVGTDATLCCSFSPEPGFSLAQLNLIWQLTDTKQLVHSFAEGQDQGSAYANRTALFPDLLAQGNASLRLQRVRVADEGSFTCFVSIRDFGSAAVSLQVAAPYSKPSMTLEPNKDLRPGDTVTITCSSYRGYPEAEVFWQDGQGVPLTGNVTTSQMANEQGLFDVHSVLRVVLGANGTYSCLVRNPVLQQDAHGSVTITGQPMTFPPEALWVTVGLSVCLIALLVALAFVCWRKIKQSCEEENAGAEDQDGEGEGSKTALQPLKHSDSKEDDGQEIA
The experiment is described as follows: SPR binding affinity for human 2IgB7H3 (Biacore 8K). As to conditions: analyte human 2IgB7H3. As for the experimental part:
The affinity of antibodies for human 2IgB7H3 was determined using surface plasmon resonance (SPR). The affinity of antibodies for human 2IgB7H3 was determined by Biacore 8K. An activator was prepared by mixing 400 mM EDC and 100 mM NHS (GE) immediately prior to injection into the channel. The CM5 sensor chip was activated for 420 seconds with the activator. Goat anti-human Fc IgG (30 μg/mL in 10 mM NaAc, pH 4.5) was then injected into the channel at a flow rate of 10 μL/min for 420 seconds. The chip was deactivated by 1 M ethanolamine hydrochloric acid. The antibodies diluted in running buffer (1×HBS-EP+) were injected into the channel at a flow rate of 10 μL/min for 30 seconds. Seven concentrations (500 nM, 250 nM, 125 nM, 62.5 nM, 31.25 nM, 15.625 nM, and 7.813 nM) of analyte human 2IgB7H3 were injected sequentially into the channel at a flow rate of 30 μL/min for an association phase of 120 seconds, followed by dissociation of 300 seconds. Glycine (10 mM, pH 1.5) was injected as regeneration buffer after the dissociation phase.
The sensorgrams for the reference channel and the buffer channel were subtracted from the test sensorgrams. The experimental data were fitted with a 1:1 binding model. The molecular weight of the human 2IgB7H3 used in the calculation was 25.2 kDa.
as §1

Experiment [3] deals with MCF-7 cells expressing human full-length B7H3. The experiment is described as follows: Internalization test (HCS) on MCF-7. The format is cell-based. To be noted: MCF-7, HCS. As to the method: Antibody internalization was determined by operetta CLS (PerkinElmer), a high-content imaging and analysis system that can collect and analyze images of samples at high speed and high sensitivity. MCF-7 cells expressing human full-length B7H3 (1.5×10^4 cells/well) were seeded into a 96-well clear bottom black plate pre-coated with 8 μg/mL poly-D-lysine. After incubation in an incubator set to 37° C., 5% CO2 overnight, various concentrations of the antibodies (3.16-fold serially diluted with 1×DPBS/1% BSA from 50 nM to 0.0005 nM) were incubated in a volume of 100 μL/well in a refrigerator set to 4° C. for 2 h. Anti-human B7H3 reference antibody enoblituzumab (MacroGeneics) was used as a positive control. Human IgG1 isotype antibody was used as a negative control. After washing the cells with 1×DPBS/1% BSA, Alexa 647 goat anti-human antibody (diluted in a 1:500 ratio in 1×DPBS/1% BSA) was added. The cells were incubated in a refrigerator set to 4° C. for 1 h in the dark. The cells were then washed once and resuspended in 1×DPBS/1% BSA at 37° C. for 2 h. […] The mean fluorescence intensity (MFI) of the cells was measured and analyzed by operetta CLS. EC50 values were calculated by four-parameter non-linear regression analysis using GraphPad Prism 7 software.

B1: Enoblituzumab (MacroGenics): anti-B7H3 benchmark antibody, sequences SEQ ID NOs: 117 and 119 of US20120294796A1 (antibody, chains of the INN, looked up)
heavy: EVQLVESGGGLVQPGGSLRLSCAASGFTFSSFGMHWVRQAPGKGLEWVAYISSDSSAIYYADTVKGRFTISRDNAKNSLYLQMNSLRDEDTAVYYCGRGRENIYYGSRLDYWGQGTTVTVSSASTKGPSVFPLAPSSKSTSGGTAALGCLVKDYFPEPVTVSWNSGALTSGVHTFPAVLQSSGLYSLSSVVTVPSSSLGTQTYICNVNHKPSNTKVDKRVEPKSCDKTHTCPPCPAPELVGGPSVFLLPPKPKDTLMISRTPEVTCVVVDVSHEDPEVKFNWYVDGVEVHNAKTKPPEEQYNSTLRVVSVLTVLHQDWLNGKEYKCKVSNKALPAPIEKTISKAKGQPREPQVYTLPPSREEMTKNQVSLTCLVKGFYPSDIAVEWESNGQPENNYKTTPLVLDSDGSFFLYSKLTVDKSRWQQGNVFSCSVMHEALHNHYTQKSLSLSPG
light: DIQLTQSPSFLSASVGDRVTITCKASQNVDTNVAWYQQKPGKAPKALIYSASYRYSGVPSRFSGSGSGTDFTLTISSLQPEDFATYYCQQYNNYPFTFGQGTKLEIKRTVAAPSVFIFPPSDEQLKSGTASVVCLLNNFYPREAKVQWKVDNALQSGNSQESVTEQDSKDSTYSLSSTLTLSKADYEKHKVYACEVTHQGLSSPVTKSFNRGEC
In the case of B1, the “Maximum MFI” value in the experiment on cynomolgus monkey B7H3 [1] is recorded as 19700; in the experiment with human B7H3, 4644. For the same molecule, the ka in the experiment on cynomolgus monkey B7H3 [2] was 185000 M⁻¹ s⁻¹; with human 4IgB7H3, 124000 M⁻¹ s⁻¹; in the experiment with human 2IgB7H3, 64400 M⁻¹ s⁻¹. The kd on cynomolgus monkey B7H3 [2] is 8.14e-05 s⁻¹; with human 4IgB7H3, 0.000126 s⁻¹; with human 2IgB7H3, 0.0168 s⁻¹. The “Antibody internalization Maximum MFI” value in experiment [3] amounted to 39777.
